Experimental data reported in article PMC3032881.

How the values were obtained:
[1] = biological target: soluble recombinant HLA A*0201 (α chain tagged with a biotinylation sequence, with β2m); assay: SPR; real time pMHC stability assay, BIAcore 3000, CM5 chip; ~500 RU of biotinylated refolded pMHCI immobilised on streptavidin; flow 10 μl/min for 15,000 s; Langmuir dissociation analysis converted to half-life
[2] = biological target: HLA A*0201 on the surface of TAP deficient T2 cells (human (endogenous in T2 cells)); assay: flow cytometry on cells; T2-binding assay: TAP deficient T2 cells with peptide at 100, 50, 10 and 1 μM in AIM-V, 10 min 37 °C, room temperature overnight, 2 h 37 °C; surface HLA A*0201 stained with anti-human HLA A*0201:RPE; MFI fitted (log(agonist) vs. response) to logEC50

Row | Substance | half-life [1] | koff [1] | LogEC50 [2]
1 | PSA 178-187 peptide … | 16.9 h | 1.1e-05 s⁻¹ | -4.3 M
2 | NY-ESO-1 157-165 peptide … | 8.9 h | 2.2e-05 s⁻¹ | -3.53 M
